According to patent US7396905B1, “Calcipressins: endogenous inhibitors of calcineurin, uses and reagents related thereto” (priority 1999, dated 2008):

How the values were obtained:
[1] = tested on: calcineurin A and B subunits produced by in vitro translation; test: In vitro binding of GST fusion proteins to 35S-labelled calcineurin subunits; conditions: GST fusion proteins purified from E. coli
Procedure: 5A. […] Associated calcineurin subunits were detected and quantified by SDS-polyacrylamide gel electrophoresis and autoradiography. The same deletion mutants were co-expressed with GFP-NF-AT4 in BHK cells and assayed for their ability to block calcium ionophore-stimulated NF-AT4 nuclear import.
Purified GsT-Csp1 and -Csp2 fusion proteins were mixed with calcineurin in vitro translation lysates in buffer A (50 mM Tris-HCl, pH7.5, 140 mM NaCl, 1 mM CaCl2, and 0.4% Triton X-100), incubated for 60 minutes at 4 degrees, and absorbed with glutathione-agarose beads. The agarose beads were washed three times with buffer A, resuspended in 2×SDS sample buffer, and fractionated on SDS-polyacrylamide gels. Dried gels were analyzed by the phosphoImager to detect and quantify GsT-Csp1 or -Csp2-associated calcineurin subunits.

[2] = tested on: calcineurin-dependent nuclear import of NF-AT4; test: Calcineurin-dependent NF-AT4 nuclear import assay in BHK cells; format: cell-based, baby hamster; conditions: co-expressed with GFP-NF-AT4 in BHK cells; calcium ionophore
Procedure: This assay monitors the subcellular location of GFP-tagged NF-AT4, a transcription factor that resides in the cytoplasm of unstimulated BHK cells. Following stimulation of BHK cells with ionomycin, a calcium ionophore, GFP-NF-AT4 translocates to the nucleus with a t1/2 of five minutes. This translocation event is accompanied by a dephosphorylation of NF-AT4 in a process dependent on calcineurin.
Baby hamster kidney cells were grown on sterile glass coverslips in DMEM media with 10% fetal calf serum and transfected using calcium phosphate methods (Heald et al., 1993). […] NF-AT4 expression was based on the vector pcDNA3-GFP-NF-AT4 (Shibasaki et al., 1996). Transfected cells were grown for 18 hours prior to drug treatments. Cells were fixed 30 minutes after ionomycin (0.5 uM) treatment or washout using 3% formaldehyde in PBS for 10 minutes at room temperature.

B1: Csp1 1-100: Csp1 lacking the C-terminal half (protein)
chain: MEEVDLQDLPSATIACHLDPRVFVDGLCRAKFESLFRTYDKDTTFQYFKSFKRVRINFSNPLSAADARLRLHKTEFLGKEMKLYFAQTLHIGSSHLAPPN
modifications: left off: a dimerising Fc or GST
notes: Csp1 lacking the C-terminal half
interaction with calcineurin in vitro [1]: no obvious interaction with calcineurin in vitro | inhibition of NF-AT4 nuclear import stimulated by calcium ionophore [2]: fails to block calcium-activation NF-AT4 nuclear import
